Experimental data published in PMC6007875 (Nature, 2018).

B1: FGFR1c^ΔHBS (K160Q/K163Q), ecto (domain or fragment, human)
chain: DNTKPNRMPVAPYWTSPEQMEQKLHAVPAAKTVKFKCPSSGTPNPTLRWLKNGKEFKPDHRIGGYKVRYATWSIIMDSVVPSDKGNYTCIVENEYGSINHTYQLDVVERSPHRPILQAGLPANKTVALGSNVEFMCKVYSDPQPHIQWLKHIEVNGSKIGPDNLPYVQILKTAGVNTTDKEMEVLHLRNVSFEDAGEYTCLAGNSIGLSHHSAWLTVLEALEER
B2: FGFR1c^ΔHBS’ (K207Q/R209Q), ecto (domain or fragment, human)
chain: DNTKPNRMPVAPYWTSPEKMEKKLHAVPAAKTVKFKCPSSGTPNPTLRWLKNGKEFKPDHRIGGYQVQYATWSIIMDSVVPSDKGNYTCIVENEYGSINHTYQLDVVERSPHRPILQAGLPANKTVALGSNVEFMCKVYSDPQPHIQWLKHIEVNGSKIGPDNLPYVQILKTAGVNTTDKEMEVLHLRNVSFEDAGEYTCLAGNSIGLSHHSAWLTVLEALEER
B3: FGFR1c^ΔRRBS (A171D), ecto (domain or fragment, human)
chain: DNTKPNRMPVAPYWTSPEKMEKKLHAVPADKTVKFKCPSSGTPNPTLRWLKNGKEFKPDHRIGGYKVRYATWSIIMDSVVPSDKGNYTCIVENEYGSINHTYQLDVVERSPHRPILQAGLPANKTVALGSNVEFMCKVYSDPQPHIQWLKHIEVNGSKIGPDNLPYVQILKTAGVNTTDKEMEVLHLRNVSFEDAGEYTCLAGNSIGLSHHSAWLTVLEALEER
B4: FGFR1c^ΔSLBS (I203E), ecto (domain or fragment, human)
chain: DNTKPNRMPVAPYWTSPEKMEKKLHAVPAAKTVKFKCPSSGTPNPTLRWLKNGKEFKPDHREGGYKVRYATWSIIMDSVVPSDKGNYTCIVENEYGSINHTYQLDVVERSPHRPILQAGLPANKTVALGSNVEFMCKVYSDPQPHIQWLKHIEVNGSKIGPDNLPYVQILKTAGVNTTDKEMEVLHLRNVSFEDAGEYTCLAGNSIGLSHHSAWLTVLEALEER
B5: FGFR1c^ΔSLBS’ (V221D), ecto (domain or fragment, human)
chain: DNTKPNRMPVAPYWTSPEKMEKKLHAVPAAKTVKFKCPSSGTPNPTLRWLKNGKEFKPDHRIGGYKVRYATWSIIMDSVDPSDKGNYTCIVENEYGSINHTYQLDVVERSPHRPILQAGLPANKTVALGSNVEFMCKVYSDPQPHIQWLKHIEVNGSKIGPDNLPYVQILKTAGVNTTDKEMEVLHLRNVSFEDAGEYTCLAGNSIGLSHHSAWLTVLEALEER
B6: fibroblast growth factor 23 (FGF23) (ligand, human, UniProt Q9GZV9 25-251, looked up)
chain: YPNASPLLGSSWGGLIHLYTATARNSYHLQIHKNGHVDGAPHQTIYSALMIRSEDAGFVVITGVMSRRYLCMDFRGNIFGSHYFDPENCRFQHQTLENGYDVYHSPQYHFLVSLGRAKRAFLPGMNPPPYSQFLSRRNEIPLIHFNTPIPRRHTRSAEDDSERDPLNVLKPRARMTPAPASCSQELPSAEDNSPMASDPLGVVRGGRVNTHAGGTGPEGCRPFAKFI
B7: FGF23^ΔHBS (R140A/R143A) (ligand, human, UniProt Q9GZV9 25-251, looked up)
chain: YPNASPLLGSSWGGLIHLYTATARNSYHLQIHKNGHVDGAPHQTIYSALMIRSEDAGFVVITGVMSRRYLCMDFRGNIFGSHYFDPENCRFQHQTLENGYDVYHSPQYHFLVSLGAAKAAFLPGMNPPPYSQFLSRRNEIPLIHFNTPIPRRHTRSAEDDSERDPLNVLKPRARMTPAPASCSQELPSAEDNSPMASDPLGVVRGGRVNTHAGGTGPEGCRPFAKFI
B8: FGF23^ΔSRBS (M149A/N150A/P151A) (ligand, human, UniProt Q9GZV9 25-251, looked up)
chain: YPNASPLLGSSWGGLIHLYTATARNSYHLQIHKNGHVDGAPHQTIYSALMIRSEDAGFVVITGVMSRRYLCMDFRGNIFGSHYFDPENCRFQHQTLENGYDVYHSPQYHFLVSLGRAKRAFLPGAAAPPYSQFLSRRNEIPLIHFNTPIPRRHTRSAEDDSERDPLNVLKPRARMTPAPASCSQELPSAEDNSPMASDPLGVVRGGRVNTHAGGTGPEGCRPFAKFI
B9: FGFR1c ligand-binding domain (FGFR1c^ecto) (domain or fragment, human)
chain: DNTKPNRMPVAPYWTSPEKMEKKLHAVPAAKTVKFKCPSSGTPNPTLRWLKNGKEFKPDHRIGGYKVRYATWSIIMDSVVPSDKGNYTCIVENEYGSINHTYQLDVVERSPHRPILQAGLPANKTVALGSNVEFMCKVYSDPQPHIQWLKHIEVNGSKIGPDNLPYVQILKTAGVNTTDKEMEVLHLRNVSFEDAGEYTCLAGNSIGLSHHSAWLTVLEALEER

Experiments:
[1] = target: FGFR1c (Homo sapiens) (UniProt P11362); conditions: cited from earlier work
[2] = target: T1, shed extracellular domain of αKlotho (αKlotho^ecto) (human, UniProt Q9UEF7 34-981); test: SEC-MALS
T1 sequence (looked up): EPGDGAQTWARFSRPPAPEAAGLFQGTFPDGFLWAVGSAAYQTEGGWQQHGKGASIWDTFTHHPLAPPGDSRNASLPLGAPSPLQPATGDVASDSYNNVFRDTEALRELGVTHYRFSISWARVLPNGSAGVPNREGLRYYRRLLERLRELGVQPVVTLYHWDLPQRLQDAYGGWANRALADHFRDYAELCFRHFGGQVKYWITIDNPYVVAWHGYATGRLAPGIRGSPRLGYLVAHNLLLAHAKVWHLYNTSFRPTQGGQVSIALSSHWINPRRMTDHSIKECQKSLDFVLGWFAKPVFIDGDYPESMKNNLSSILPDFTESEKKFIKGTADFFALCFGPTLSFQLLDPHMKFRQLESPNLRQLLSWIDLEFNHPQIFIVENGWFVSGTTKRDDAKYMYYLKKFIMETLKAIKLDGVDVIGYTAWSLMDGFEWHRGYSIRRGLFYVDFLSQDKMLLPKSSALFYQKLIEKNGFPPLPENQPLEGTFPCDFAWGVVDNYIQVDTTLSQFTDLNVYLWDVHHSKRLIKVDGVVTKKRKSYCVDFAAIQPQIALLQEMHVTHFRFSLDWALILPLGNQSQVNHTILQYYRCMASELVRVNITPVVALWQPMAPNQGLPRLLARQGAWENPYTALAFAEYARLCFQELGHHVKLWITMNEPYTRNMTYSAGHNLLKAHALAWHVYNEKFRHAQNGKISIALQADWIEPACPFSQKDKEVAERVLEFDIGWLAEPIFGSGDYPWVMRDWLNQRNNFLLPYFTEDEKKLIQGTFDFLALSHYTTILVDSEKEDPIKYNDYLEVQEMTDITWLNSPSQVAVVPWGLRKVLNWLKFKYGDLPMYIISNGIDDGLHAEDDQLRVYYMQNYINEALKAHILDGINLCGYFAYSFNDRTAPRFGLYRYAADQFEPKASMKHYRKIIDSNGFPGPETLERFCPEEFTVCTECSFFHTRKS

[3] = target: B9; test: SEC-MALS
[4] = target: B8; test: SEC-MALS
[5] = target: B7; test: SEC-MALS

FGFR1c (Homo sapiens), sequence (P11362 22-376): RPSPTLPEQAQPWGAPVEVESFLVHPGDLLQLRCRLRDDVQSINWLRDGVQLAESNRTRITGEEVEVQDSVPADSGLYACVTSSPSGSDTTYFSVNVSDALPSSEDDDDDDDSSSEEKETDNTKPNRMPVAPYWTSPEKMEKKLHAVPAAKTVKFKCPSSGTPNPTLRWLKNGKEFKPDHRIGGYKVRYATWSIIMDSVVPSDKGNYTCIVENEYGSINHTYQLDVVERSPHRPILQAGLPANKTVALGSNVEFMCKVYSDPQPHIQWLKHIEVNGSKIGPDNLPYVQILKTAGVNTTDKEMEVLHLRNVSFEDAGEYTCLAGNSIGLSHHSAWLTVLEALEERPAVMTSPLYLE

Row | Molecule | binding result [2] | further results
1 | αKlotho (from UniProt Q9UEF7) |  | Kd [1]: 72 nM
2 | B1 | binds | 
3 | B2 | binds | 
4 | B3 | binds | 
5 | B4 | binds | 
6 | B5 | binds | 
7 | B6 |  | stoichiometry N [2]: 1; stoichiometry N [3]: 1
8 | B7 | binds | 
9 | B8 | binds | 
10 | B9 |  | binding result [4]: binds; binding result [5]: binds; stoichiometry N [2]: 1
